Test results taken from the DeepSol protein solubility set.

Assay: soluble on expression in E. coli; label from the status in PepcDB or PDB records
In the case of “MGSDKIHHHHHHMTRSEAQGRLTGLAPVSVIDIGSNSVRLVVYEGLSRAPAVLFNEKVLCGLGKGLALTGRMHEEGVTRALMALRRFHVLSEQAQAQKLYVLATAAAREAENGPDFIREAEAILGCEIEVLSGEKEALYSAYGVISGFYQPDGIAGDLGGGSLELIDIKDKSCGEGITLPLGGLRLSEQSDGSLEKAATIARKHVKSFAKLLAAGEGRTFYAVGGTWRNIAKLHMEISGYPLHMMQGYELPLEEMLNFLEEVIVSRDSKDPAWQAVSKNRRSLLPFGAIAMREVLRAMKPAKIAFSAQGVREGYLYSLLTEAERESDPLLVAADELAILRARSPEHARELADWSGRTFPVFGIDETEEESRYRQAACLLADISWRAHPDYRGLQALNIIAHSSFVAITHPGRAYIALANYYRFEGLNDNGTTEPLAAMAGERLQELGKLLGGLLRVVYLFSASMPGVVDHLKFRKSDNPDIDLEFVVPHDYCDFAGERLDGRLQQLAKLTGKRLAFVFE”, the “soluble on expression in E. coli” value is reported as “not soluble”. In the case of “MGSDKIHHHHHHMTSADNILAHASAMRQFSQFAGVAGLDLRRACPPDVYAFVEQAQDAEWLPATAHVDVLQAAAIASGRADLGVAFAMWCNIRGFGPVSLLWDHCTTVDEASRITRRYMHLESAAMRSSTDTDGHEAALRHILMVPARFGGSQFLQATLALQLRIIRMLLGEEWTPIRLELDHPAPPSYRYHQAVFRCPIEFEADRCALVFRKSDLHRPSLRGNANMVQYLERQLAHADSHWPGDLVQQIRYFVAANLTERKANLAHVSGLAGLSSQSLQRRLAERGTTFATILEEVRKQTADEYFRTARRPNLTELSHRLGYTDASAASRFLRQHMSTGARALMAQVRPGRGRPGSARALAAEA”, the “soluble on expression in E. coli” value is reported as “not soluble”. For “MGSDKIHHHHHHMTSVTPCASSSSEMNDFLQAHPDTQYVDLLISDMNGVVRGKRIERASLHKVYEKGINLPASLFALDINGSTVESTGLGLDIGDADRICFPIPGTLSDEPWQKRPTAQLLMTMHELDGQPFFADPREVLRQVVSKFDDLGLTICAAFELEFYLIDQDNLNGRPQPPRSPISGKRPQSTQVYLIDDLDEYADCLQDMLEAAKEQGLPADAIVKESAPAQFEVNLHHVADPLKACDYAILLKRLIKNVAYDHEMDTTFMAKPYPGQAGNGLHVHISLLDKKTGKNIFASDDPLQSDTLRHAIGGVLETMPASMAFLCPNINSYRRFGAQFYVPNAPSWGLDNRTVAVRVPTDSSENVRLEHRVAGADANPYLMLAAILAGVHHGLTNKVEPEAPIEGNSYEQLEQSLPNNLRDALRALDDSEVLNQYISPDYIDIFVACKESELAEFEVSISDLEYNWYLHTV”, the “soluble on expression in E. coli” value was “not soluble”. In the case of “MGSDKIHHHHHHMTTESIAVLVIDDDPAILQNIVCYLEDSDFICFGAADGAAGIETFERERPDAVIVDLNMPGMNGRDVIARINAQSPTTPVIVVSGTGVIDEAVESMRVGAWDFLSKPVRRMEELENAVRAGLRRARTMRESNEYKETLERMVKRRTRELQLANDRTEAILLATVQSLSTVINLKDAYTGTHQQRVALIAPAIAEELGMEQRAVEAVRLAALLHDVGKMGLPSEFLTKPSRLDANEMQFIRQHPQLGYDILKDIPFELPIPEMVLQHHERLDGSGYPRGLAGDDILPEARILAVADTVEAICSHRPWRPAHPFSHALHELTAGKNTLYCPDAVNSCIDLITRGDPRLTTFTATIKGLPS”, the “soluble on expression in E. coli” value is reported as “not soluble”. In the case of “MGSDKIHHHHHHMTTKDISRPVCILGLGLIGGSLLRDLHAANHSVFGYNRSRSGAKSAVDEGFDVSADLEATLQRAAAEDALIVLAVPMTAIDSLLDAVHTHAPNNGFTDVVSVKTAVYDAVKARNMQHRYVGSHPMAGTANSGWSASMDGLFKRAVWVVTFDQLFDGTDINSTWISIWKDVVQMALAVGAEVVPSRVGPHDAAAARVSHLTHILAETLAIVGDNGGALSLSLAAGSYRDSTRVAGTDPGLVRAMCESNAGPLVKALDEALAILHEAREGLTAEQPNIEQLADNGYRSRIRYEARSGQRRAKESVSPTITSSRPVLRLHPGTPNWEKQLIHAETLGARIEVF”, the “soluble on expression in E. coli” value is reported as “not soluble”. With “MGSDKIHHHHHHMTTSTGKINLLGLTQPEMEQFFDSIGEKRFRAGQVMKWIHHFGVSDFAAMTNVGKVLREKLEAVAEIRPPEVVSEDISADGTRKWVIRVASGSCVETVYIPTDDRGTLCVSSQAGCALDCSFCSTGKQGFNSNLTAAEVIGQVWLANKSFGTVPAKVDRAITNVVMMGMGEPLLNFDNVIAAMKIMMDDLGYGISKRRVTLSTSGVVPMIDELAKHIDVSLALSLHAPNDELRNKLVPINKKYPLKVLLESCMGYMSTLGGKRVLTVEYTLLKDVNDQPEHAAQMIELLRDVPCKINLIPFNPFPHSGYERPSNNAIRRFQDLLHHGGFNVTTRTTRGDDIDAACGQLVGQVNDRTRRSERYIAVRQLSADVELPDSAASH” the “soluble on expression in E. coli” value was “not soluble”. For “MGSDKIHHHHHHMTTVIAGVSGAIGGALARRYLSSYPDRSLIGLCRRPETAPDDLRNHSGVRLMAWDAEDEQRLDVAEFKAVLEASGPVYTVIYAGGLLHDGQMFPEKRLEDIDGRSMMRSYQVNCLGFVSLMQRLAPALRGKHFKRIAAVSAKVGSISDNQLGGWYAYRASKAALNMVVKNLSIELSRRYAPLACVSLHPGTTLSSLSQPFQQSLEQLTVHEPEQTASNLFSVLESLDARDNGRFISWDGSDLPW”, the “soluble on expression in E. coli” value was “not soluble”. For “MGSDKIHHHHHHMTWGFKNRLNTILPDGRAVMLAIDHGYFLGPIHGLEQPLETVKNLLPYTDSLFLTRGVLSSCIPENCSTPMVIRVSGGATVVGKDLANETIVTPVKEAVKQNAIGVGVSVFVGSDYETQTVTNLANVVSEAHDYCLPVLGITAVAKELQKREARFLALASRVCVEMGADIIKTYYCEGFEKITSTCPAPVVIAGGPKLDSIEDALNITYNALQEGAIGVDMGRNIWQSEHPAAMIQAIHGIVKNGLNVKEALQLYEDVKN”, the “soluble on expression in E. coli” value was “not soluble”. With “MGSDKIHHHHHHMTWNLAGSYSETCSCELMCPCNMSFDHGATYDFCRVTLAFNVHEGSVEGTDIAGRKVVLIADTPKVMTDGNWRVGVFVDDGASEEQFDKLVQVFGGQLGGPMAGLAPLIGEMLGVQRAAIDIEDDGLLHSVRVGDEIDFQIQDIVPFGVETGEPVRFAGMFHPVGSDLVMAEAKRTRINAFGITYEGKTGLSKSSFTWAA” the “soluble on expression in E. coli” value was “not soluble”. With “MGSDKIHHHHHHMVAATSQNTFDSPRSPLYNFTMDIRPLSDVAGVILVGGRSRRMGRDKALIPLGGKPLVERVIDAFRPLFERILLVGDRGERFASYGLPVFPDIHPGSALGGLYTGLVRAGTPHVFVSACDVPWPDPRVIARLCSLREGFDVVVPRTVGGSEPLFAVYGTGCLPAMERMLREGNYRIYDFYPEVRTRYVEQAELADLVTPARTFVNVNTPEEFETIRNREEGMAIKAVSFVAKSGTGKTTLLEKVIAELKGRGYRIGVIKHDAHRFDIDHPGKDSHRLAAAGADTMLIASPEKLALVKKYDESPPLDELLATYFGDVDIVLTEGFKKSSLPKIEVHRMERSATLLCRGEEHDPTLVAVASDAALALDVPVFDLNNPAQVADFVERTFLAAGAA” the “soluble on expression in E. coli” value was “not soluble”. With “MGSDKIHHHHHHMVAKKKILFFMWSFSLGGGAEKILSTIVSNLDPEKYDIDILEMEHFDKGYESVPKHVRILKSLQDYRQTRWLRAFLWRMRIYFPRLTRRLLVKDDYDVEVSFTIMNPPLLFSKRREVKKISWIHGSIEELLKDSSKRESHRSQLDAANTIVGISKKTSNSIKEVYPDYTSKLQTIYNGYDFQTILEKSQEKIDIEIAPQSICTIGRIEENKGSDRVVEVIRLLHQEGKNYHLYFIGAGDMEEELKKRVKEYGIEDYVHFLGYQKNPYQYLSQTKVLLSMSKQEGFPGVYVEALSLGLPFISTDVGGAEELSQEGRFGQIIESNQEAAQAITNYMTSASNFDVDEASQFIQQFTITKQIEQVEKLLEE” the “soluble on expression in E. coli” value was “not soluble”. For “MGSDKIHHHHHHMVDVLVIGGGNAALCAALTAREAGASVLLLEAAPREWRGGNSQHTRNLRCMHDAPQDVLVESYPEEEFWQDLWRVTDGNTNEALARLVIRTSSQCRDWMRKHGVNFQPPLSGALHVARTNAFFMGGGKALVNAYYRSAERLGVQVRYNTPVHALELHDGEFVAALAGSERITAKACVLAAGGFESNREWLREAWGENARGEWPADNFLIRGTRFNQGVLLKFMMDAGADIIGDPSQSHCVAIDARAPLYDGGICTRVDCVSLGIVVNRDAERFYDEGEDFWPKRYAIWGRLVAQQPGQIGYSIIDSKAIGHFMPPVFPGAQANTLAELACQLGLDAEKFTHTVTQYNQACQPGHFDHTLLDDCATKNLTPAKTHWARPLDAPPYYGYALRPGITFTYLGLKVNERAAVHFAGHPSRNLFVAGEMMAGNVLGKGYTAGVGMSIGTTFGRIAGIEAARAAHKEAQHETA”, the “soluble on expression in E. coli” value was “not soluble”. In the case of “MGSDKIHHHHHHMVEHRGFDVLSLPWLDVPRQAFLTQLQTQKVPHAQLVGIDSAYGGELLSVFMARAAMCSQPTHTGGCGFCKSCQLFDAGNHPDFYQIEADGHQIKVDQIRELCSRLSATAQQSGRRVAIIHHSERLNSASANALLKTLEEPGKDTLLLLHSDTPARLMATISSRCQRLPFVAPSKTLIKNWLIQQCQIQEDVTWCLSVVGGPLKLAESLQSNSTQPSRYQTLLGFRKDWAQSLSSGHLCASLLIISEQQIIDALKVLYLLLRQILLKNGNQDAYVQAQIGNLAAKVMGMCHSLSAMPSVNYLGLCQSYVLEYRDITNK”, the “soluble on expression in E. coli” value is reported as “not soluble”. In the case of “MGSDKIHHHHHHMVKIKGLNGNLVFIFGPGSFDEYLSFLEEKLTANKQLFSGSRVIFKGEELKKLSHSQIASLQELCLRHGVIMNNNAVTVNKGSSKDLVIYRNLRSGQKLRSEGSVIIWGDVHESAEILAAGDIIVLGKLDGIAHAGCYGDMNRLIFALSLSPGQIRIGDRLSRSPEDPDKSPHPEIAFWDGENICIKAYSSRSGLRG”, the “soluble on expression in E. coli” value is reported as “not soluble”. In the case of “MGSDKIHHHHHHMVKKIMLHGATDYGSSNYGDYLYGEIVYDLLESKGYEVSFYNPSDFFQMYLKEYRQKQSFTKKQADAILYIPGGYFGEGHNARFRDNLIQFKRFLPLGIWASYFKKPIGVLGIGAGPNNDSLMNYGIKRIINHAQFITVRDRESFDSLKHLSPSAPVHETFDLIISSKLREEKTEQLCQLKREAKDKKIILVHYNHSKKALEKFAESISLFLENNPNYYVVVTSDSILPYEDAYYQEFRKLVRTEDCFQFKYHSPAEMTSLLKMVDVVLTCKLHVGVVATCFNKSVIAIACHPEKTARYYGAIGELQRCESLFDSSVNSIVKKLETFHLKPITIPSELVLKARSSLDYLDLFLEGLVRES”, the “soluble on expression in E. coli” value is reported as “not soluble”. For “MGSDKIHHHHHHMVKNDESQIFTKMRLTLVIPSLYSGGAERVLSIIANYWASKGWKVTLLTFCGNQPPFYDLDSRISYIPLHIARDSSNLIAAVKNNLYRIFKLRLAITASNPDIVISFMSEANVTTLLATRGLNVPVLVSERNNPKIRLTKSSIWVKLRQLTYPFAQRVIVQTQRALNYFPSSLKNRICVIPNPVLLPPNKPCKPQELFNKLPGQKLLIAVGRLESQKGFDLLLQAFANLKDDFSEWQLVILGEGILHLDLTELCHQLQLNGRVYFLGRVKNIYEFLQEADIYVMSSRFEGFPNALCEAMASGLPVISTDCPNGPREIIRDGIDGLLVPNEDVLALTSAIKLLMSDEEKRKNLATNASEIAERFSIDKIMEMWEFVVKDVVES”, the “soluble on expression in E. coli” value was “not soluble”. In the case of “MGSDKIHHHHHHMVKVLILGQGYVASTFVAGLEKLRKGEIEPYGVPLARELPIGFEDIKIVGSYDVDRAKIGKKLSEVVKQYWNDVDSLTSDPEIRKGVHLGSVRNLPIEAEGLEDSMTLKEAVDTLVKEWTELDPDVIVNTCTTEAFVPFGNKEDLLKAIENNDKERLTATQVYAYAAALYANKRGGAAFVNVIPTFIANDPAFVELAKENNLVVFGDDGATGATPFTADVLSHLAQRNRYVKDVAQFNIGGNMDFLALTDDGKNKSKEFTKSSIVKDILGYDAPHYIKPTGYLEPLGDKKFIAIHIEYVSFNGATDELMINGRINDSPALGGLLVDLVRLGKIALDRKEFGTVYPVNAFYMKNPGPAEEKNIPRIIAYEKMRIWAGLKPKWL”, the “soluble on expression in E. coli” value is reported as “soluble”.
